In patent publication US6703362 (dated 2004):
“And” between values parts separate entries of the source, which are not always exact repeats. Equal values may be shown once. Ends that are not written are not given here. * marks the point of attachment. Dansyl = CN(C)c1cccc2c(S(=O)(=O)*)cccc12

Columns and labels:
[1] = target: C2BBe1 fixed cells (GST-P31 competition); test: competition ELISA on fixed cells; vs GST-P31
C2BBe1 fixed cells [2] = test: competition ELISA on fixed cells; vs GST-P31
C2BBe1 fixed cells [3] = test: competition ELISA on fixed cells; vs GST-PAX2
C2BBe1 fixed cells [4] = test: competition ELISA on fixed cells; vs GST-HAX42

Binder | IC50 [1] [nM] | IC50 (C2BBe1 fixed cells [2]) [nM] | IC50 (C2BBe1 fixed cells [3]) | IC50 (C2BBe1 fixed cells [4]) [nM]
K(Dansyl)SARDSGPAEDGSRAVRLNGVENANTRKSSRSNPRGRRHPGG-NH2 [z024(P31)] | 940 | – | – | –
K(Dansyl)SDHALGTNLRSDNAKEPGDYNCCGNGNSTGRKVFNRRRPSAIPT-NH2 (cysteine pairing not given here) [Z21(HAX42)] | – | 1700 | 700 nM | –
K(Dansyl)STPPSREAYSRPYSVDSDSDTNAKHSSHNRRLRTRSRPNG-NH2 [ELAN018(PAX2)] | – | – | 600 nM and 1000 nM | 230
K(Dansyl)SDHALGTNLRSDNAKEPGDYNCCGNGNSTGRKVFNRRRPSAIPT-NH2 (cysteine pairing not given here) [ELAN021(HAX42)] | – | – | – | 5500
K(Dansyl)SARDSGPAEDGSRAVRLNGVENANTRKSSRSNPRGRRHPGG-NH2 [ELAN024(P31)] | – | 500 | – | –
